The values below come from PMC9882641, “Utilizing genetic code expansion to modify N-TIMP2 specificity towards MMP-2, MMP-9, and MMP-14” (Research Square, 2023).

Holding throughout (test): enzyme inhibition assay (chromogenic substrate, fit to Morrison's tight binding equation); MMP-2ACT (0.6 nM), MMP-9CAT (3 nM) or MMP-14CAT (1 nM) incubated with 0-25 nM N-TIMP2 variant for 1 h at 37 C in 50 mM HEPES, 10 mM CaCl2, 0.05% Brij-35, 1 mM DTNB, pH 7.5; then 100 uM chromogenic substrate, absorbance at 412 nm; three independent experiments
Settings in all cases: both partners purified

Assay [1] addresses T1, human MMP-14 catalytic domain (MMP-14CAT) (human, UniProt P50281 112-292).
T1 construct: Matrix metalloproteinase 14 (MMP-14), human, catalytic domain, residues 112-292

Assay [2] has as its target T2, human MMP-9 catalytic domain (MMP-9CAT) (human, UniProt P14780 107-215; P14780 391-443).
T2 construct: Matrix metalloproteinase 9 (MMP-9), human, catalytic domain, residues 107-215 (first stretch; residues 216-390 left out); Matrix metalloproteinase 9 (MMP-9), human, catalytic domain, residues 391-443 (second stretch)
T2 chain (looked up): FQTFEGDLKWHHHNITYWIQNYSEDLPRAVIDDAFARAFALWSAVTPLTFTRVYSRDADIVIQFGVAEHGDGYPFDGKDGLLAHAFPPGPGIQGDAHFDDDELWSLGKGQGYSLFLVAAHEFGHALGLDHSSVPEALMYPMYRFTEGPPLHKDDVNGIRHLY

Assay [3] has as its target T3, activated MMP-2 (MMP-2ACT) (human, UniProt P08253 110-660).
T3 sequence (looked up): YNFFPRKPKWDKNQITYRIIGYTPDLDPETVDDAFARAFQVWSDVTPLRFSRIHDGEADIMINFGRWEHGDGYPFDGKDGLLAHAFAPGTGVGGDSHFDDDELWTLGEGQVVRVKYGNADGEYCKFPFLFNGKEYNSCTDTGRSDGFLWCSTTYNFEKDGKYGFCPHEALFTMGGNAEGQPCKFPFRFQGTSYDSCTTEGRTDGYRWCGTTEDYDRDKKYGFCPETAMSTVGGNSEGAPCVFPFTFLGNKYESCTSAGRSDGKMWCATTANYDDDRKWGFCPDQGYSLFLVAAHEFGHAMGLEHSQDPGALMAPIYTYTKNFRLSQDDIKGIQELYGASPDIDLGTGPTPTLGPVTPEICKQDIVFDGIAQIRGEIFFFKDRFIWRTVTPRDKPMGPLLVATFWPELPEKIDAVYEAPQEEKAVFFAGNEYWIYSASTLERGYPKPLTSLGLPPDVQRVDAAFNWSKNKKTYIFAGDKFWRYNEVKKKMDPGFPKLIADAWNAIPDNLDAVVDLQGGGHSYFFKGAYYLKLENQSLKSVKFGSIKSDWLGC

B1: N-TIMP2 (N-terminal domain of TIMP2) (domain or fragment, human, UniProt P16035 27-153, looked up)
chain: CSCSPVHPQQAFCNADVVIRAKAVSEKEVDSGNDIYGNPIKRIQYEIKQIKMFKGPEKDIEFIYTAPSSAVCGVSLDVGGKKEYLIAGKAEGDGKMHITLCDFIVPWDTLSTTQKKSLNHRYQMGCE
notes: numbers count on: the mature protein (Cys1 is the N-terminus); Cloned in the vector pMECS; also called wild-type N-TIMP2; parental N-TIMP2; source: E. coli WK6, periplasmic extract, purified (Ni-NTA)
By Ki is commonly meant the dissociation constant of the complex between target and ligand, obtained from inhibition or displacement. As to B1, the Ki in assay [1] worked out at 0.711 nM; in assay [2], 0.322 nM; in assay [3], 0.233 nM.
